Measured values: the supplement of paper PMC10126150
± gives the standard deviation of the averaged measurements.

tested on: ATP; assay: switch fluorescence ratio, 500 uM ATP over buffer (Cy3 cluster intensity, sum of 5 cycles each) (fold (ratio)); higher = stronger signal-on switching upon ATP binding; sequences stand for … in TCGTCGGCAGCGTCAGATGTGTATAAGAGACAGTTTTTTTTTTTTTTTTTTTTTTTTT…TC; details: aptamer strand: ATP DNA aptamer (quencher-CACCTGGGGGAGTATTGCGGAGGAAGG + anchor), 100 nM annealed; ATP concentration: 500 uM
Method in brief: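 Cy3-labelled switching-strand clusters on a modified Illumina MiSeq flow-cell were annealed to 100 nM quencher-labelled ATP aptamer and imaged first in selection buffer, then after 15 min with 500 uM ATP at 22 °C. NaOH stripping and re-annealing separated each of five buffer/ATP cycles, and clusters outside 100-1000 RFU were excluded. The fluorescence ratio sums target-cycle Cy3 intensity over buffer-cycle Cy3 intensity per cluster and averages it per switch-domain sequence.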
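Further: ATP exposure 15 min at 22 °C before imaging.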

| Sequence | switch fluorescence ratio |
| --- | --- |
| TCTAGTCCGA | 1.003 ± 0.009 |
| TCTAGTGGGG | 1.01 ± 0.028 |
| TCTAGTGGTA | 0.9893 ± 0.0096 |
| TCTATAAATA | 0.985 ± 0.022 |
| TCTATATGGG | 0.99 ± 0.011 |
| TCTATGATAG | 0.971 ± 0.013 |
| TCTCAAAAAT | 1.1 ± 0.025 |
| TCTCACATCG | 1.01 ± 0.024 |
| TCTCAGTAGG | 1.02 ± 0.013 |
| TCTCAGTCCA | 1.02 ± 0.039 |
| TCTCCGAGTG | 1.45 ± 0.17 |
| TCTCCGGGGA | 1.2077 ± 0.0006 |
| TCTCGAGGGG | 1 ± 0.019 |
| TCTCGCCAAG | 1.06 ± 0.019 |
| TCTCGCCTTT | 0.975 ± 0.066 |
| TCTCGGCTGG | 0.9962 ± 0.001 |
| TCTCTGGATG | 1.02 ± 0.013 |
| TCTCTGTAGG | 1.03 ± 0.037 |
| TCTCTGTCGG | 1.05 ± 0.011 |
| TCTCTGTCTC | 1.12 ± 0.097 |
| TCTCTTATGA | 0.997 ± 0.011 |
| TCTCTTGGGA | 1.03 ± 0.024 |
| TCTGAAAATG | 0.998 ± 0.012 |
| TCTGAAATTC | 1.15 ± 0.055 |
| TCTGAAATTT | 0.9727 ± 0.0067 |

| Sequence | switch fluorescence ratio |
| --- | --- |
| TCTGACAATC | 1.91 ± 0.24 |
| TCTGACGTA | 1.04 ± 0.0091 |
| TCTGAGGGGA | 1.02 ± 0.055 |
| TCTGATAGTT | 0.998 ± 0.021 |
| TCTGATGGTG | 1.06 ± 0.039 |
| TCTGATGTGA | 1.08 ± 0.044 |
| TCTGATGTTT | 1.01 ± 0.021 |
| TCTGCTAAAA | 0.973 ± 0.041 |
| TCTGGAATAA | 1.66 ± 0.057 |
| TCTGGCCGCG | 1.015 ± 0.0075 |
| TCTGGGAATA | 1.04 ± 0.023 |
| TCTGGGCCTT | 0.999 ± 0.023 |
| TCTGGGGAGG | 1 ± 0.02 |
| TCTGGGGGT | 0.949 ± 0.02 |
| TCTGGGGTGG | 1.16 ± 0.21 |
| TCTGGGGTTT | 1.03 ± 0.051 |
| TCTGGGTGAA | 1.03 ± 0.081 |
| TCTGGTTAGT | 1.01 ± 0.066 |
| TCTGGTTTTG | 0.984 ± 0.043 |
| TCTGTAGGTG | 1.07 ± 0.046 |
| TCTGTAGTGG | 1.03 ± 0.014 |
| TCTGTATCCG | 0.984 ± 0.015 |
| TCTGTATGTA | 1.01 ± 0.026 |
| TCTGTCCAGC | 0.9775 ± 0.0046 |
| TCTGTCCTTT | 0.9708 ± 0.0028 |

| Sequence | switch fluorescence ratio |
| --- | --- |
| TCTGTGACTA | 1.06 ± 0.044 |
| TCTGTGATCT | 1.01 ± 0.021 |
| TCTGTTAAT | 1.11 ± 0.18 |
| TCTGTTTGTT | 1.015 ± 0.01 |
| TCTGTTTTTT | 0.989 ± 0.01 |
| TCTTACGGGG | 1.003 ± 0.01 |
| TCTTAGCATA | 1.18 ± 0.13 |
| TCTTAGCGCG | 1.07 ± 0.041 |
| TCTTAGGACG | 0.997 ± 0.036 |
| TCTTAGGTGG | 1.05 ± 0.016 |
| TCTTAGTAGT | 0.986 ± 0.028 |
| TCTTATAATA | 0.988 ± 0.032 |
| TCTTATAATT | 1.01 ± 0.011 |
| TCTTATTCAA | 0.98 ± 0.012 |
| TCTTATTGCT | 0.96 ± 0.045 |
| TCTTATTGGT | 1.01 ± 0.013 |
| TCTTCACGTC | 1.003 ± 0.0029 |
| TCTTCACTAC | 1.25 ± 0.06 |
| TCTTCATGCG | 1.07 ± 0.053 |
| TCTTCGGTTG | 0.9805 ± 0.0096 |
| TCTTGACTAG | 1.06 ± 0.053 |
| TCTTGATGGG | 0.9811 ± 0.008 |
| TCTTGCATAA | 1.07 ± 0.076 |
| TCTTGGACGG | 0.985 ± 0.021 |
| TCTTGGGACG | 0.979 ± 0.042 |

| Sequence | switch fluorescence ratio |
| --- | --- |
| TCTTGGGTAT | 0.986 ± 0.035 |
| TCTTGTGAGT | 0.984 ± 0.012 |
| TCTTGTGG | 0.982 ± 0.012 |
| TCTTTACAAA | 1.03 ± 0.02 |
| TCTTTACAGG | 1.09 ± 0.067 |
| TCTTTATATG | 0.9989 ± 0.0033 |
| TCTTTCAGGA | 0.999 ± 0.013 |
| TCTTTGGAAC | 0.997 ± 0.034 |
| TCTTTGGGCT | 1.1 ± 0.19 |
| TCTTTGGGTT | 1.42 ± 0.92 |
| TCTTTGTTG | 1.02 ± 0.02 |
| TCTTTGTTTT | 0.991 ± 0.021 |
| TCTTTTACTG | 1.01 ± 0.033 |
| TCTTTTAGTA | 0.991 ± 0.035 |
| TCTTTTATTT | 0.998 ± 0.043 |
| TCTTTTGGGT | 0.9777 ± 0.0063 |
| TGAAAAAGG | 0.982 ± 0.019 |
| TGAAAAAGGG | 1.04 ± 0.027 |
| TGAAAAGGGA | 1.01 ± 0.017 |
| TGAAAATAG | 0.992 ± 0.018 |
| TGAAAATTTT | 0.99 ± 0.029 |
| TGAAAGATTA | 1.01 ± 0.029 |
| TGAAAGGCGT | 0.9862 ± 0.0072 |
| TGAAAGGGAT | 0.988 ± 0.077 |
| TGAAAGGGTA | 0.999 ± 0.022 |
